Values belong to the binder of their own block, whether it stands above or below them. Square brackets hold non-standard residues; d marks the D form. Ends that are not written are not given here. pT = C[C@@H](OP(=O)(O)O)[C@H](N)C(=O)O; pS = N[C@@H](COP(=O)(O)O)C(=O)O
B1: dimeric C-terminal domain of Hsp90 (Hsp90 600-709) (domain or fragment)
chain: not shown
notes: Hsp90 residues 600-709, dimeric C-terminal domain; also called cHsp90; C-Hsp90
B2: human Spagh/RPAP3 120-395 (tandem TPR region) (domain or fragment, UniProt Q9H6T3 120-395, looked up)
chain: ESEEDGIHVDSQKALVLKEKGNKYFKQGKYDEAIDCYTKGMDADPYNPVLPTNRASAYFRLKKFAVAESDCNLAVALNRSYTKAYSRRGAARFALQKLEEAKKDYERVLELEPNNFEATNELRKISQALASKENSYPKEADIVIKSTEGERKQIEAQQNKQQAISEKDRGNGFFKEGKYERAIECYTRGIAADGANALLPANRAMAYLKIQKYEEAEKDCTQAILLDGSYSKAFARRGTARTFLGKLNEAKQDFETVLLLEPGNKQAVTELSKIKK
notes: Spagh/RPAP3, human, residues 120-395, tandem TPR region; GST fusion with a PreScission site; also called Spagh/RPAP3-TPR2 (label of the tandem region in the text); wild-type Spagh/RPAP3
B3: Spagh/RPAP3 120-395 N172E (domain or fragment, human, UniProt Q9H6T3 120-395, looked up)
chain: ESEEDGIHVDSQKALVLKEKGNKYFKQGKYDEAIDCYTKGMDADPYNPVLPTERASAYFRLKKFAVAESDCNLAVALNRSYTKAYSRRGAARFALQKLEEAKKDYERVLELEPNNFEATNELRKISQALASKENSYPKEADIVIKSTEGERKQIEAQQNKQQAISEKDRGNGFFKEGKYERAIECYTRGIAADGANALLPANRAMAYLKIQKYEEAEKDCTQAILLDGSYSKAFARRGTARTFLGKLNEAKQDFETVLLLEPGNKQAVTELSKIKK
notes: Spagh/RPAP3, human, residues 120-395, N172E in TPR1; also called N172E-TPR1 mutant
B4: Spagh/RPAP3 120-395 N321E (domain or fragment, human, UniProt Q9H6T3 120-395, looked up)
chain: ESEEDGIHVDSQKALVLKEKGNKYFKQGKYDEAIDCYTKGMDADPYNPVLPTNRASAYFRLKKFAVAESDCNLAVALNRSYTKAYSRRGAARFALQKLEEAKKDYERVLELEPNNFEATNELRKISQALASKENSYPKEADIVIKSTEGERKQIEAQQNKQQAISEKDRGNGFFKEGKYERAIECYTRGIAADGANALLPAERAMAYLKIQKYEEAEKDCTQAILLDGSYSKAFARRGTARTFLGKLNEAKQDFETVLLLEPGNKQAVTELSKIKK
notes: Spagh/RPAP3, human, residues 120-395, N321E in TPR2; also called N321E-TPR2 mutant
B6: Tah1p-Pih1p 187-344 complex (complex, yeast)
chain 1: MSQFEKQKEQGNSLFKQGLYREAVHCYDQLITAQPQNPVGYSNKAMALIKLGEYTQAIQMCQQGLRYTSTAEHVAIRSKLQYRLELAQGAVGSVQIPVVEVDELPEGYDRS
chain 2: HKIIEEEAGDPMSILRGRNDDGDDNNDPDDGTLPPLFPIENKISGAKIEEIDKNEIAHRNLKQAPAPAPAPHEQQEDVPEYEVKMKRFKGAAYKLRILIENKAPNSKPDRFSPSYNFAENILYINGKLSIPLPRDIVVNAADIKIFHIRKERTLYIYI
notes: Tah1, S. cerevisiae, full length; also called Tah1-Pih1-CS heterodimer

Assays:
Settings in all cases: both partners purified
[1] = target: T1, Cpr6 (monomeric TPR-domain Hsp90 cochaperone) (UniProt P53691 1-371); assay: co-IP; 70 μM Flag-Tah1p, Hsp90 600-709 and increasing concentrations of Cpr6 in 20 mM HEPES pH 7.5, 150 mM NaCl, 10% glycerol, 0.5% Igepal, 2 mM EDTA; Anti-Flag M2 magnetic beads; SDS-PAGE
T1 construct: Cpr6, TPR-domain Hsp90 cochaperone
T1 sequence (P53691 whole entry): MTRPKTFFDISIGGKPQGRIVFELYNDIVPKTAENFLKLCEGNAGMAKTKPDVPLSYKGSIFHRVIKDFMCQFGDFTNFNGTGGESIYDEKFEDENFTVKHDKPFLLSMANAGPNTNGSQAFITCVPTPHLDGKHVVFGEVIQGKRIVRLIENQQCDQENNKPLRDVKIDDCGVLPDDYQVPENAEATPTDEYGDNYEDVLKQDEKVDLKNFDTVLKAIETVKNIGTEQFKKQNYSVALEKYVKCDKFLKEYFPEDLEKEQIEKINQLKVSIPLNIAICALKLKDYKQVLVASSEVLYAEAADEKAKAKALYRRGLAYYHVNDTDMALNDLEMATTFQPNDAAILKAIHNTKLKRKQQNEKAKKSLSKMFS

FLAG-tagged Tah1 = target: T2, FLAG-tagged Tah1 (yeast, UniProt P25638 1-111); assay: as above
T2 construct: Tah1p, S. cerevisiae; also called FLAG-Tah1; Flag-Tah1p
T2 sequence: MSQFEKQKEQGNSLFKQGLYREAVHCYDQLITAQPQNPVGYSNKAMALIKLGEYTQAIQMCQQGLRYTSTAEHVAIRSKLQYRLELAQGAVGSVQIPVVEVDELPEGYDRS

[2] = target: T3, Tah1 (yeast, full-length) (yeast, UniProt P25638 1-111); assay: SEC; calibrated gel-filtration column; cHsp90, Tah1-Pih1p 187-344 and their mixture
T3 construct: Tah1, S. cerevisiae, full length (C-terminal residue Ser 111); Selenomethionine-labelled Tah1 was used for the crystal structure; also called Tah1p; SeMetTah1
T3 sequence (looked up): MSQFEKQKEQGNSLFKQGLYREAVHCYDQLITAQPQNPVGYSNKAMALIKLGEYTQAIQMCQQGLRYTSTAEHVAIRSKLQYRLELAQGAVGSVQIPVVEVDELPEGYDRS

[3] = target: B6; assay: as above
His6-Hsp90β = target: T4, His6-Hsp90β (human, UniProt P08238 1-724); assay: pull-down; His6-Hsp90β as bait, Spagh/RPAP3 120-395 tandem TPR segment (wild type and mutants) as prey
T4 construct: Hsp90 beta, human; also called His-tagged Hsp90; human Hsp90β
T4 sequence (P08238 whole entry): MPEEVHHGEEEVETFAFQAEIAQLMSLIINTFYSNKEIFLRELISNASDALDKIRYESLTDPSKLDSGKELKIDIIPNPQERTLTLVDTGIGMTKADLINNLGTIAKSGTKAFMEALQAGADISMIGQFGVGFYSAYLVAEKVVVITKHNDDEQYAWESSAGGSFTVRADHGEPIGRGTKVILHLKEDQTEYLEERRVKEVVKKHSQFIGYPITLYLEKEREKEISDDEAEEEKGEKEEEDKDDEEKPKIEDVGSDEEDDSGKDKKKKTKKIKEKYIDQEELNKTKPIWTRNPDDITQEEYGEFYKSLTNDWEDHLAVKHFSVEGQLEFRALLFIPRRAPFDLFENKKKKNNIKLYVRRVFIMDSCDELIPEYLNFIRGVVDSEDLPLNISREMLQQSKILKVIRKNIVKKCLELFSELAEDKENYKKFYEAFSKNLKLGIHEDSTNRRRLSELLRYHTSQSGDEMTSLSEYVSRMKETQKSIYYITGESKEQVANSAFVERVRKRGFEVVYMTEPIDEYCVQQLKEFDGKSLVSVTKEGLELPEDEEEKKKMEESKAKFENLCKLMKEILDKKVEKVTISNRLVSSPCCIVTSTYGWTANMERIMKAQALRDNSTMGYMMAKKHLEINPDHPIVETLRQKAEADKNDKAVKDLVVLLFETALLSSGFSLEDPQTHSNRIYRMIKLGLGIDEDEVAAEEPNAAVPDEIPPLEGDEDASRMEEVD

[4] = target: T5, mouse Pih1 PIH domain 1-200 (His-mPih1 1-200) (mouse, UniProt Q9CQJ2 1-200); assay: ITC; peptides at 350 μM injected into 30 μM Pih1 (mPIH domain) at 30°C; 20 mM Tris pH 7.5, 5 mM NaCl
T5 construct: Pih1 (Pih1D1), mouse, residues 1-200; SeMet protein was used for the crystal structure 4CKT; The ITC methods say only 'Pih1' / 'mPIH domain'; also called mPIH domain; Pih1D1
T5 sequence (Q9CQJ2 1-200): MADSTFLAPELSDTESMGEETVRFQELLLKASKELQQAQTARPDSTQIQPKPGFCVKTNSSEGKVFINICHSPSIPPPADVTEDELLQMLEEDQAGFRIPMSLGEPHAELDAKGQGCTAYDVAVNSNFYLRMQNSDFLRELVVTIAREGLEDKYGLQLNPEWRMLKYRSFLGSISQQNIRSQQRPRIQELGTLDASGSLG

[5] = target: B1; assay: SEC; calibrated gel-filtration column; cHsp90, Tah1-Pih1p 187-344 and their mixture
[6] = target: B2; assay: ITC; 2 mM … injected into 80 μM Spagh/RPAP3 120-395; 10 mM Tris pH 7.5, 5 mM NaCl; 10°C; two site fitting
[7] = target: B2; assay: ITC; 2 mM … injected into 80 μM Spagh/RPAP3 120-395; 10 mM Tris pH 7.5, 5 mM NaCl; 30°C; two site fitting
[8] = target: B4; assay: ITC; 2 mM … injected into 80 μM Spagh/RPAP3 120-395 mutants (N172E, N321E, N172E-N321E); 10 mM Tris pH 7.5, 5 mM NaCl; temperature not given; two site model
[9] = target: B3; assay: as above

Binder: B1
binding result [1]: binds
binding result (FLAG-tagged Tah1): binds
binding result [2]: binds
binding result [3]: binds

Binder: B2
binding result (His6-Hsp90β): binds

Binder: B3
binding result (His6-Hsp90β): binds

Binder: B4
binding result (His6-Hsp90β): binds

Kd [4]: 6.4 µM
B5: Mre11 phosphopeptide MANDpSDDSI (peptide)
peptide: MAND[pS]DDSI
notes: Mre11, phosphorylation site 554-MANDpSDDSIS-563 found among sites in human proteins

Binder: B6
stoichiometry N [5]: 1 Tah1-Pih1 heterodimer per cHsp90 chain (2:2:2)

KD of the moderate-affinity site (two site fitting) [6]: 24 µM
KD of the tight site (two site fitting) [6]: 1 µM
KD of the moderate-affinity site (two site fitting) [7]: 23.6 µM
KD of the tight site (two site fitting) [7]: 1.49 µM
stoichiometry N [7]: ~2 peptides per Spagh/RPAP3
KD of the TPR1 site (non-mutated; two site model) [8]: 0.94 µM
KD of the TPR1 site (mutated; two site model) [9]: ~231 µM
B7: human Hsp90 C-terminal peptide DDTSRMEEVD (peptide)
peptide: DDTSRMEEVD
notes: human Hsp90 C-terminal peptide; also called C-terminal Hsp90 peptide

Kd [4]: 45.7 µM
B8: Tel2 peptide with pSer492 replaced by phosphothreonine (peptide)
peptide: QGSDSELD[pT]DDEF
notes: also called phosphothreonine Tel2 peptide
